Test results as given in patent publication US20100317723, “Nucleolin Specific Aptamer and Use thereof” (POSTECH ACADEMY-INDUSTRY FOUDATION, published 2010).

How the values were obtained:
[1] = biological target: T1, Nucleolin (cell-surface, C6 rat glioma cells) (UniProt P13383 P13383:1-713); assay: C6 cell fluorescence, about 1.5 fold or more, 20 nM; confirmed by confocal; details: tags: endogenous on C6 cells (ATCC); label: 5'-Cy3; G4
Procedure: (§1) To determine the targeting efficiency of the cancers, fluorescence intensities of forty-seven Cy3-labeled BzdU-containing GRO29A and eighteen Cy3-labeled NapdU-containing GRO29A compounds were quantified to evaluate their targeting efficiency at C6 cells by the Varioskan Flash spectral scanning multimode reader (Thermo Fisher Scientific Inc. Waltham, Mass.; excitation: 535 nm, scanning wavelength: 570 nm with a band width: 12 nm). C6 cells were seeded 1×10⁵ cell density onto Magne to FACTION 24 plate (Chemicell, GmbH, Germany) and caring at a 5% CO₂-humidified chamber. After 24 hours of grown, these seeded cells were incubated in DMEM (Dubelocos' modified essential media) with 20 nM of Cy3-labeled GRO29A or AS1411, or 20 nM of each of the Cy3-labeled modified dU-containing GRO29A or AS1411 compounds at for 30 minute at 4° C. for decreasing non-specific binding during 30 min and rinsed by PBS (1×), then replaced to 200 μl Tris buffer, and then treated with each of 47 different compounds (20 pmole). […] These cells were collected by PBS (1×) (120 μl) and transferred into 96-well plate (Chemicell, GmbH, Germany) for measurement of fluorescence intensity (100 μl). […]

[2] = biological target: T1, Nucleolin (cell-surface, C6 rat glioma …); assay: C6 cell fluorescence, about 1.5 fold or more, 20 nM; details: tags: endogenous on C6 cells (ATCC); label: 5'-Cy3; G4
Procedure: To determine the targeting efficiency of the cancers, fluorescence intensities of forty-seven Cy3-labeled BzdU-containing GRO29A and eighteen Cy3-labeled NapdU-containing GRO29A compounds were quantified to evaluate their targeting efficiency at C6 cells by the Varioskan Flash spectral scanning multimode reader (Thermo Fisher Scientific Inc. Waltham, Mass.; excitation: 535 nm, scanning wavelength: 570 nm with a band width: 12 nm). C6 cells were seeded 1×10⁵ cell density onto Magne to FACTION 24 plate (Chemicell, GmbH, Germany) and caring at a 5% CO₂-humidified chamber. After 24 hours of grown, these seeded cells were incubated in DMEM (Dubelocos' modified essential media) with 20 nM of Cy3-labeled GRO29A or AS1411, or 20 nM of each of the Cy3-labeled modified dU-containing GRO29A or AS1411 compounds at for 30 minute at 4° C. for decreasing non-specific binding during 30 min and rinsed by PBS (1×), then replaced to 200 μl Tris buffer, and then treated with each of 47 different compounds (20 pmole). Then, seeded cells was washed with PBS (phosphate buffered saline) two times each for 10 min at RT using shaking incubation (30 rpm) to remove the unbound Cy3-labeled modified dU-containing GRO29A or AS1411 compounds, and subjected to trypsinization to detach from the plate surface. These cells were collected by PBS (1×) (120 μl) and transferred into 96-well plate (Chemicell, GmbH, Germany) for measurement of fluorescence intensity (100 μl).

[3] = biological target: T2, Nucleolin (cell-surface, human cancer cell lines) (UniProt P19338 P19338:2-710); assay: HeLa cell fluorescence; details: tags: endogenous on HeLa, MDA-MB231, HepG2, AGS, OVCAR-3, U87MG cells (ATCC); label: 5'-Cy3; G4
Procedure: (§2) To determine the targeting efficiency of the cancers, fluorescence intensities of forty-seven Cy3-labeled BzdU-containing GRO29A and eighteen Cy3-labeled NapdU-containing GRO29A compounds were quantified to evaluate their targeting efficiency at C6 cells by the Varioskan Flash spectral scanning multimode reader (Thermo Fisher Scientific Inc. Waltham, Mass.; excitation: 535 nm, scanning wavelength: 570 nm with a band width: 12 nm). C6 cells were seeded 1×10⁵ cell density onto Magne to FACTION 24 plate (Chemicell, GmbH, Germany) and caring at a 5% CO₂-humidified chamber. […] These cells were collected by PBS (1×) (120 μl) and transferred into 96-well plate (Chemicell, GmbH, Germany) for measurement of fluorescence intensity (100 μl).
(§3) To test functional activity of BzdU-containing GRO29A, the compounds numbers 1642-39, 1642-51 and 1642-19, in other cancer cells, the inventors first extended cancer targeting assay by selecting another cancer cells, HeLa (human cervix cancer cell line, ATCC), and a normal healthy cell line, CHO (chinese hamster ovary cell line, ATCC). The measurement of fluorescence intensity was performed as described above for C6 cells.

[4] = biological target: T1, Nucleolin (cell-surface, C6 rat glioma …); assay: C6 cell fluorescence, 20 nM; confirmed by confocal; details: tags: endogenous on C6 cells (ATCC); label: 5'-Cy3; G4
Procedure: as §1

[5] = biological target: T1, Nucleolin (cell-surface, C6 rat glioma …); assay: cell fluorescence and confocal on C6 cells, 20 nM, 4 C; reference; details: tags: endogenous on C6 cells (ATCC); label: 5'-Cy3; G4
Procedure: as §1

[6] = biological target: T2, Nucleolin (cell-surface, human cancer …); assay: HeLa cell fluorescence; reference; details: tags: endogenous on HeLa, MDA-MB231, HepG2, AGS, OVCAR-3, U87MG cells (ATCC); label: 5'-Cy3; G4
Procedure: as §2, §3

T1 sequence (P13383 whole entry, one chain of several): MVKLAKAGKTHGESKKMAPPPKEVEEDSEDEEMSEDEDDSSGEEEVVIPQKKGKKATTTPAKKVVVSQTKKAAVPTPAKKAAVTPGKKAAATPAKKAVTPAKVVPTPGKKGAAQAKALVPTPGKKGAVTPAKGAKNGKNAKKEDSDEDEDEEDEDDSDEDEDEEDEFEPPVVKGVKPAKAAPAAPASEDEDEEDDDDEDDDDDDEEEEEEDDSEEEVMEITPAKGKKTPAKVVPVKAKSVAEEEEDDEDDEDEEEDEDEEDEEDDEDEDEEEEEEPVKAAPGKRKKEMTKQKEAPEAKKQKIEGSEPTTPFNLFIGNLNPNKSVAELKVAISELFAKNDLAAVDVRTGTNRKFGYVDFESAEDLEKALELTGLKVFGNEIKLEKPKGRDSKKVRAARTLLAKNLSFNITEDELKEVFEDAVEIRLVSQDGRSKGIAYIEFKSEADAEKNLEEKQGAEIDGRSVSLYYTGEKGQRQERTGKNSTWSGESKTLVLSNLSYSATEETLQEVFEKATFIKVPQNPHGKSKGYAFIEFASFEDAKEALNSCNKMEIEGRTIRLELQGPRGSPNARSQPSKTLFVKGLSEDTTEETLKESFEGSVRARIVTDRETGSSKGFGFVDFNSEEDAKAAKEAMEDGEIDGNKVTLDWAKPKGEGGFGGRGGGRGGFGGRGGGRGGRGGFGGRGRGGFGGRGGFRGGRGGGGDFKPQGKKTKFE
T2 sequence (P19338 2-710, one chain of several): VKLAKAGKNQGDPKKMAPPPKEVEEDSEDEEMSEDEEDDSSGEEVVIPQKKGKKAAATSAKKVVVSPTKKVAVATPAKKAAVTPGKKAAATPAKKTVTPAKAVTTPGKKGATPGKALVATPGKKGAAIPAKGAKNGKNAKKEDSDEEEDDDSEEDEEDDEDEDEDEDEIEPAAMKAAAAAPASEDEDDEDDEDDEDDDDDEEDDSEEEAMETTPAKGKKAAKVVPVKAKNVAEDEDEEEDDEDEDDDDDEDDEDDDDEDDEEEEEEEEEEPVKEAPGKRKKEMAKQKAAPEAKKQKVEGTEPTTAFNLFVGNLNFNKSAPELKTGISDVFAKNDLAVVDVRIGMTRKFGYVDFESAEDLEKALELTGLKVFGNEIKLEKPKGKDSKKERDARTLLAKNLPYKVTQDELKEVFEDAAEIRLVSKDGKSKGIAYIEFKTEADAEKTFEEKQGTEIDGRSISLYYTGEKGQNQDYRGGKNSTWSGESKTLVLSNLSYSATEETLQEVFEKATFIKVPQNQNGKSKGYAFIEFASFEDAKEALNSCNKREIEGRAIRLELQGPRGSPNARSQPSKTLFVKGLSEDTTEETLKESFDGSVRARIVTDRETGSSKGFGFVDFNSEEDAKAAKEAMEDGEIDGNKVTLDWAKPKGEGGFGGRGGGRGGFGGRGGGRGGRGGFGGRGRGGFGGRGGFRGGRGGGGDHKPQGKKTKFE

B1: 1642-39 (ssDNA)
DNA: TTTGGTGGTGGTGGTTGTGGTGGTGGTGG
modifications: BzdU at T15, T16
For B1, the binding signal [1] was at least 1.5 fold vs GRO29A.

B2: 1642-11 (ssDNA)
DNA: TTTGGTGGTGGTGGTTGTGGTGGTGGTGG
modifications: BzdU at T6
For B2, the binding signal [2] was at least 1.5 fold vs GRO29A.

B3: 1642-30 (ssDNA)
DNA: TTTGGTGGTGGTGGTTGTGGTGGTGGTGG
modifications: BzdU at T9, T27
B3 was tested, and the binding signal [2] was at least 1.5 fold vs GRO29A.

B4: 1642-13 (ssDNA)
DNA: TTTGGTGGTGGTGGTTGTGGTGGTGGTGG
modifications: BzdU at T12
For B4, the binding signal [2] was at least 1.5 fold vs GRO29A.

B5: 1642-49 (ssDNA)
DNA: TTTGGTGGTGGTGGTTGTGGTGGTGGTGG
modifications: BzdU at T2, T3, T15, T16
For B5, the binding signal [2] was at least 1.5 fold vs GRO29A.

B6: 1642-19 (ssDNA)
DNA: TTTGGTGGTGGTGGTTGTGGTGGTGGTGG
modifications: BzdU at T27
With B6 the binding signal [3] was about 2.3 fold vs GRO29A and the binding signal [4] was about 2.5 fold vs GRO29A.

B7: GRO29A (Cy3-1641-3) (ssDNA)
DNA: TTTGGTGGTGGTGGTTGTGGTGGTGGTGG
B7 was tested, and the binding signal [5] was 1 fold and the binding signal [6] was 1 fold.

B8: 1642-51 (ssDNA)
DNA: TTTGGTGGTGGTGGTTGTGGTGGTGGTGG
modifications: BzdU at T1, T3, T15, T16
B8 gave a binding signal [1] of at least 1.5 fold vs GRO29A.
